From IntAct's records for PubMed 28506294

B1: SOSS complex subunit B1 (Homo sapiens), Q9BQ15 (parent)
chain: MTTETFVKDIKPGLKNLNLIFIVLETGRVTKTKDGHEVRTCKVADKTGSINISVWDDVGNLIQPGDIIRLTKGYASVFKGCLTLYTGRGGDLQKIGEFCMVYSEVPNFSEPNPEYSTQQAPNKAVQNDSNPSASQPTTGPSAASPASENQNGNGLSAPPGPGGGPHPPHTPSHPPSTRITRSQPNHTPAGPPGPSSNPVSNGKETRRSSKR

Variants of: B1
Settings: with int3_human INTS3, Q68E01
int3_human INTS3, Q68E01, sequence (Q68E01 whole entry): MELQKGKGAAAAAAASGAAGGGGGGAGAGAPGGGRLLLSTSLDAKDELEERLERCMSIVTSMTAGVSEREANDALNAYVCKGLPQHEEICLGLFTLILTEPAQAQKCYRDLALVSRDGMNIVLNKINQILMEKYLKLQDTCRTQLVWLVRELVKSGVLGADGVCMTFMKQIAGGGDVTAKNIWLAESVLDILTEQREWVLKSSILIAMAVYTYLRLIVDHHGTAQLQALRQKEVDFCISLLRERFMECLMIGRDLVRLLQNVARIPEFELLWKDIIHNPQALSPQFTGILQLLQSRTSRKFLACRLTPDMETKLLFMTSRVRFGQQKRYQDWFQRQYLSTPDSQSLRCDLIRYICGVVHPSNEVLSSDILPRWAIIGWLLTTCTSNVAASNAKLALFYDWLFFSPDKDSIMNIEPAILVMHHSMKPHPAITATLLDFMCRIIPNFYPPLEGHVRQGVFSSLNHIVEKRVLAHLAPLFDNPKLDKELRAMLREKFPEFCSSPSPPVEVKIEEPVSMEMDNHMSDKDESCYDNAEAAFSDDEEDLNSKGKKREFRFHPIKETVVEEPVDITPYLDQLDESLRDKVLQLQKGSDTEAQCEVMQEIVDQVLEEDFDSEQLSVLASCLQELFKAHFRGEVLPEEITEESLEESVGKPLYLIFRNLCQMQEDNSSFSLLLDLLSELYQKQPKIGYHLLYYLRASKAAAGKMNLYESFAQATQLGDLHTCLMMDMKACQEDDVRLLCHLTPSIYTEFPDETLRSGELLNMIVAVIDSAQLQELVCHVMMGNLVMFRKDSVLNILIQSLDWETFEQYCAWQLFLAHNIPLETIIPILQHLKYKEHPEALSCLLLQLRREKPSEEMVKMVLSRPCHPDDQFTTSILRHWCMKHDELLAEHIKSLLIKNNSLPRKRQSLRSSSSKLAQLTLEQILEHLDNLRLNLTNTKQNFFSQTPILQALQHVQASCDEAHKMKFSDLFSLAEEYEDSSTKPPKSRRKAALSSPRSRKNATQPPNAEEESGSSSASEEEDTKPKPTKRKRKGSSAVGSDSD

| effect of a mutation on the interaction | Variant |
| --- | --- |
| disrupting interaction strength | F98A |
